Patent KR20190053464A (dated 2019)

B1: 7H3C11FW (antibody, V domains shown)
VH: QVQLVESGGGVVQPGRSLRLSCAASGFAFGSYTMHWVRQAPGKGLEWVTLISFDGRSKLYGDSVKGRFTISRDNSKNSLYLQMNSLRAEDTAVYYCARGSVRGEAAFDLWGQGTLVTVSS
VL: SYELTQPPSVSVSPGQTASITCSGDNLRTKYVSWYQQKPGQSPVLVIYQDTRRPSGIPERFSGSNSGNTATLTISGTQAMDEADYYCMTWDVDTTSMIFGGGTKLTVL

Target: 인간 IL-17A (human IL-17A, R&D system) (human, UniProt Q16552 20-155, limits assumed)
Assay: cell-based or functional assay

인간 IL-17A (human IL-17A, R&D system), sequence (Q16552 20-155 limits assumed): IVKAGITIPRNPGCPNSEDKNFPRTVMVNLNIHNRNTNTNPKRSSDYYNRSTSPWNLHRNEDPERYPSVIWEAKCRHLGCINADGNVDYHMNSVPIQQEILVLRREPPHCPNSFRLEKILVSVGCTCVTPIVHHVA

Molecule | IC50 of inhibition of IL-17A-dependent IL-6 secretion, HeLa cells [nM] | fold better IC50 than secukinumab in-house, HeLa IL-6 assay [fold]
세쿠키누맙 (secukinumab), made in-house (antibody) | 4.16 | –
B1 | 2.88 | ~1.4
